In PMC11808092:

How the values were obtained:
human dUTPase (human) [1] = biological target: human dUTPase (human)
human dUTPase (human) [2] = test: steady state enzyme inhibition assay; apparent; 50 nM hDUT preincubated 5 min with varying Stl variant, 30 µM dUTP, 25 °C, 1 mM HEPES, 150 mM KCl, 5 mM MgCl2, 40 µM phenol red, pH 7.5; quadratic binding equation
human dUTPase (human) [3] = test: crystal structure; Stl^NT and hDUT mixed in 1:1 monomer molar ratio, ca. 20 mg/ml; crystals at 20 °C from 1.5 M ammonium sulfate, 0.1 M sodium acetate pH 5; 3.2 Å
[4] = biological target: biotinylated Stl^NT (residues 1-159) with C-terminal Avi-tag (Staphylococcus aureus); test: BLI; biotinylated Stl construct on streptavidin SAX biosensors, hDUT in solution; Octet K2, 30 °C, 50 mM HEPES, 300 mM NaCl, 5 mM MgCl2, pH 7.5; at least five dilutions; 1:1 binding model; substrate-free

Row | Substance | Residual activity of 50 nM hDUT at 300 nM Stl concentration (human dUTPase (human) [1]) | further results
1 | Stl protein, wild type, full-length (natural protein) | 30% | –
2 | Stl-E189A (natural protein) | 77% | –
3 | Stl-I181A, I184A (natural protein) | 70% | Ki (human dUTPase (human) [2]): 2.3 nM
4 | Stl-L192A, F196A (natural protein) | 100% | –
5 | Stl-S114D (natural protein) | 100% | –
6 | Stl-S114E (natural protein) | 100% | –
7 | Stl-V55S (natural protein) | 75% | –
8 | Stl-Y106K (natural protein) | 83% | –
9 | Stl-Y106R (natural protein) | 89% | –
10 | Stl-Y116R (natural protein) | 69% | –
11 | Stl-derived peptide 95-…-117 | 70% | Ki (human dUTPase (human) [2]): 13 nM
12 | Stl^NT (amino terminal domain of Stl, residues 1-159) (domain or fragment) | 50% | Ki (human dUTPase (human) [2]): 31 nM
13 | human dUTPase (enzyme) | – | stoichiometry N (human dUTPase (human) [3]): 3; Kd [4]: 0.177 nM; koff [4]: 0.000106 s⁻¹; kon [4]: 600000 M⁻¹ s⁻¹
